Test results from patent publication US20240279310A1 (ALPINE IMMUNE SCIENCES, published 2024).
Where two headings read alike, the source gives them in different places.

Legend:
Test in all cases: cell-based or functional assay
[1] = target: T1, recombinant human BAFF (BioLegend) (human, UniProt Q9Y275 134-285)
[2] = target: T2, recombinant human APRIL (Tonbo Biosciences) (human, UniProt O75888 105-250, limits assumed)
T2 sequence (looked up): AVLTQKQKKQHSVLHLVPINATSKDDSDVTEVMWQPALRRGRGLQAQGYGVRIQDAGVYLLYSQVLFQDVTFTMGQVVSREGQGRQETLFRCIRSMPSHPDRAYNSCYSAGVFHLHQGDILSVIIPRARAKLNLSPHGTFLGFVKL

[3] = target: T1, recombinant human BAFF (BioLegend); remark: listed apart in the source
[4] = target: T1, recombinant human BAFF (BioLegend); remark: listed apart in the source
[5] = target: recombinant mouse BAFF (R & D Systems) (mouse, UniProt Q9WU72 127-309)
[6] = target: T3, recombinant mouse APRIL (ProSci Incorporated) (mouse, UniProt Q9D777 96-241, limits assumed)
T3 sequence (looked up): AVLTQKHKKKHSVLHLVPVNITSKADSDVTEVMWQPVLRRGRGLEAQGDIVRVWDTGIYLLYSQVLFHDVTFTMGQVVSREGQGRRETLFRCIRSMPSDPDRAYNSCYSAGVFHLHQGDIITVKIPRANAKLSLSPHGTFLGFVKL

[7] = target: T1, recombinant human BAFF (BioLegend); remark: listed apart in the source
[8] = target: T2, recombinant human APRIL (Tonbo …); remark: listed apart in the source

Chain of recombinant mouse BAFF (R & D Systems) (Q9WU72 127-309 limits assumed): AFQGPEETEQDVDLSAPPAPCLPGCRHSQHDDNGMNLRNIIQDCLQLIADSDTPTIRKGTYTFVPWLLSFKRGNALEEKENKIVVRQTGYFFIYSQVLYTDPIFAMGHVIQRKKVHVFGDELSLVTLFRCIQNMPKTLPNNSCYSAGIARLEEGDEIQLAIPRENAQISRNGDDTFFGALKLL

B1: 13 TACI CRD2-Fc, WT TACI (68-110)-Fc (TACI 68-110, SEQ ID NO: 13, TACI-Fc SEQ ID NO: 171) (Fc fusion)
chain: SLSCRKEQGKFYDHLLRDCISCASICGQHPKQCAYFCENKLRSGSGGGGSEPKSSDKTHTCPPCPAPEAEGAPSVFLFPPKPKDTLMISRTPEVTCVVVDVSHEDPEVKFNWYVDGVEVHNAKTKPREEQYNSTYRVVSVLTVLHQDWLNGKEYKCKVSNKALPAPIEKTISKAKGQPREPQVYTLPPSRDELTKNQVSLTCLVKGFYPSDIAVEWESNGQPENNYKTTPPVLDSDGSFFLYSKLTVDKSRWQQGNVFSCSVMHEALHNHYTQKSLSLSPG
- BAFF IC50 (pM) [1]: 1850 pM
- BAFF IC50 (Δ WT) [1]: 1 ratio
- APRIL IC50 (pM) [2]: 12300 pM
- APRIL IC50 (Δ WT) [2]: 1 ratio
- IC50 (read off the curve) [3]: ~2000 pM
- IC50 (read off the curve) [4]: ~3000 pM
- IC50 (read off the curve) [5]: ~5 nM
- IC50 (read off the curve) [6]: ~700 pM
- IC50 (nM) BAFF [7]: 1330 nM
- IC50 BAFF (Δ TACI 30-110-Fc) [7]: 0.23 ratio
- IC50 (nM) APRIL [8]: 369 nM
- IC50 APRIL (Δ TACI 30-110-Fc) [8]: 0.1 ratio
